Results on 4 molecules are retold here after publication PMC6006169, “Conformational switching in the coiled-coil domains of a proteasomal ATPase regulates substrate processing” (Nature Communications, 2018).

As usually defined, the Km is the substrate concentration at which the rate is half of its maximum.

Data set [1] concerns the target CC-OB domain fragment of PAN-M87C (subcomplex I) (Methanococcus jannaschii). Put plainly: cross-linking; PAN-M87C after partial trypsin proteolysis and gel filtration (Superose 12); fractions 1 and 3 in 1 mM tetrathionate 1 h at room temperature, desalted, non-reducing SDS-PAGE, silver stain.
Data set [2] addresses T1, PAN (proteasome-activating nucleotidase) (Methanocaldococcus jannaschii, UniProt Q58576, L73C/M87C).
T1 construct: full-length, pRSETA, E. coli BL21(DE3)-RIL, heat precipitation, anion exchange and size exclusion; no tag mentioned; homohexamer
Kind of data set: NADH-coupled ATP regenerating ATPase assay ([…] nm). The class given is biochemical. The settings on record: oxidized (tetrathionate): coiled-coil disulfide crosslinked C1 and C3, no saturation with ATP; pH 7.5, 37 °C, 20 mM MgCl2; original residue 73 not given.

Data set [3] deals with the molecule itself. Kind of data set: cross-linking; disulfide cross-linking of engineered cysteines; 1 mM tetrathionate, 1-2 h, room temperature, 50 mM Tris pH 7.5 + 5% glycerol, no nucleotide, PAN at or below 0.25 mg/ml; desalted on G50, non-reducing SDS-PAGE, Coomassie, densitometry of monomers vs. dimers.
Substrate in the data set “purified protein”: Nc1ncnc2c1ncn2[C@@H]1O[C@H](COP(=O)(O)OP(=O)(O)OP(=O)(O)O)[C@@H](O)[C@H]1O
Kind of data set: purified protein. The data set is classed as biochemical, Methanocaldococcus jannaschii. The settings on record: reduced (uncrosslinked), pH 7.5, 37 °C.

T1 sequence (Q58576 whole entry L73C/M87C): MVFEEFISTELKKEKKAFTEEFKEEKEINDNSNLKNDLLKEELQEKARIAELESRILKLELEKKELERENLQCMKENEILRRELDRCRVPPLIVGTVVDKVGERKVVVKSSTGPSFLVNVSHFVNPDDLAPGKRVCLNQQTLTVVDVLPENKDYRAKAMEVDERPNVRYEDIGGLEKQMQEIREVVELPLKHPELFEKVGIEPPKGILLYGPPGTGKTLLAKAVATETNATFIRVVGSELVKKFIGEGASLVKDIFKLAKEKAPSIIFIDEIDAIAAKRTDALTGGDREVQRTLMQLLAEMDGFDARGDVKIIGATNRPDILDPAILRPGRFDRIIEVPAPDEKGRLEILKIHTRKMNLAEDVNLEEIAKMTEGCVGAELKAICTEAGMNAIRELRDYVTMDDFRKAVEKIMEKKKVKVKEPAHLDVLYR

“CC-OB domain fragment of PAN-M87C (subcomplex I) (domain or fragment)”: in data set [1], the percent cross-linked dimers amounted to 100%.

Regarding `Nc1ncnc2c1ncn2[C@@H]1O[C@H](COP(=O)(O)OP(=O)(O)OP(=O)(O)O)[C@@H](O)[C@H]1O` [ATP], the Km in data set [2] was more than 3000 µM.

B1: PAN 59C (enzyme, Methanococcus jannaschii, UniProt Q58576 1-430, looked up)
chain: MVFEEFISTELKKEKKAFTEEFKEEKEINDNSNLKNDLLKEELQEKARIAELESRILKCELEKKELERENLQLMKENEILRRELDRMRVPPLIVGTVVDKVGERKVVVKSSTGPSFLVNVSHFVNPDDLAPGKRVCLNQQTLTVVDVLPENKDYRAKAMEVDERPNVRYEDIGGLEKQMQEIREVVELPLKHPELFEKVGIEPPKGILLYGPPGTGKTLLAKAVATETNATFIRVVGSELVKKFIGEGASLVKDIFKLAKEKAPSIIFIDEIDAIAAKRTDALTGGDREVQRTLMQLLAEMDGFDARGDVKIIGATNRPDILDPAILRPGRFDRIIEVPAPDEKGRLEILKIHTRKMNLAEDVNLEEIAKMTEGCVGAELKAICTEAGMNAIRELRDYVTMDDFRKAVEKIMEKKKVKVKEPAHLDVLYR
notes: Expressed from pRSETA; no tag named; source: E. coli BL21-DE3-RIL, purified (heat precipitation, anion exchange, size exclusion)
Take B1: the percent cross-linked in data set [3] amounted to 69%. In addition, the Km in “purified protein” (20 mM MgCl2, original residue 59 not given) is 436 ± 29 µM.

B2: PAN (proteasome-activating nucleotidase) (Methanocaldococcus jannaschii DSM 2661; L59C/L73C/M87C) (protein)
chain: MVFEEFISTELKKEKKAFTEEFKEEKEINDNSNLKNDLLKEELQEKARIAELESRILKCELEKKELERENLQCMKENEILRRELDRCRVPPLIVGTVVDKVGERKVVVKSSTGPSFLVNVSHFVNPDDLAPGKRVCLNQQTLTVVDVLPENKDYRAKAMEVDERPNVRYEDIGGLEKQMQEIREVVELPLKHPELFEKVGIEPPKGILLYGPPGTGKTLLAKAVATETNATFIRVVGSELVKKFIGEGASLVKDIFKLAKEKAPSIIFIDEIDAIAAKRTDALTGGDREVQRTLMQLLAEMDGFDARGDVKIIGATNRPDILDPAILRPGRFDRIIEVPAPDEKGRLEILKIHTRKMNLAEDVNLEEIAKMTEGCVGAELKAICTEAGMNAIRELRDYVTMDDFRKAVEKIMEKKKVKVKEPAHLDVLYR
notes: full-length, pRSETA, E. coli BL21(DE3)-RIL, heat precipitation, anion exchange and size exclusion; no tag mentioned; homohexamer
Regarding B2, in the data set “purified protein” (20 mM MgCl2, original residues 73 and 59 not given), the Km is 580 ± 64 µM.
